Test system: MS2 coat protein
Assay: apparent KD of MS2 coat protein; designed switch direction (-1 OFF switch, 1 ON switch): -1; higher = weaker reporter binding
Outline: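 Normalised cluster fluorescence was curve-fitted, and each design's median over clusters is its apparent KD. Before this, SNAP-549-labelled MS2 coat protein was titrated from 0.7 or 1.5 nM, doubling to 3 µM, over RNA switches transcribed on Illumina chips by stalled E. coli RNA polymerase. Titrations had no input, 200 uM small-molecule ligand, or an oligonucleotide input, and steps lasted 0.8–1.5 h (lowest) to 10–20 min (highest).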

[1] = input ligand: microRNA oligo, concentration not stated
[2] = Eterna round: R95, input ligand: microRNA oligo, concentration not stated
[3] = Eterna round: R95, input ligand: FMN 200 uM
[4] = Eterna round: R95, input ligand: none

| Sequence | apparent KD of MS2 coat protein (input ligand: FMN 200 uM) [nM] | apparent KD of MS2 coat protein (input ligand: none) [nM] | apparent KD of MS2 coat protein [2] [nM] | also measured |
| --- | --- | --- | --- | --- |
| AGUACUAACACGUUAGUGUUAGUACAAUAAGCUUGUGAAACAUGAGGAUCACCCAUGUCCUCAUAAGCUCGUCUUAU [salish99_TOv2_r3_056] (Eterna round: R96, puzzle: Sensor v3, turn-off variant 2) | 16 | 17.9 |  | apparent KD of MS2 coat protein [1]: 466 nM |
| UCAAAGUCAGGAUAUACAUGAGGAUCACCCAUGUAAAAUUUUAAUUUAAUUUGAAGGUGUAGAAGGGACAAACC [Ex3 #33] (Eterna round: R97, puzzle: Exclusion 3) | 18.3 | 31.6 |  |  |
| UUUAGUAUCUAGGAUAUCUAGUACAUAGUAUCUAGAGAAGGAGAUACAUGAGGAUCACCCAUGUUCUGUGAUCU [Exclusion 6 - 2:b] (puzzle: Exclusion 6) |  |  | 118 |  |
| GUGUACGGAGGAUAUAUAUGGGCAGCAUACGCUGCAGCUUCACAUGAGGAUCACCCAUGUAGAAGGCUGUACAC [Mat - Exclusion 2 - Mod of Hyphema - D100] (puzzle: Exclusion 2) |  |  | 22 |  |
| GAUCCUUCUGUUAGGAUAUGCUUUGGGCUUCCGCAGCAGAAGGAACAUGAGGAUCACCCAUGUCCAAUGCCAUC [salish99_bmex4_r4_505] (Eterna round: R97, puzzle: Brourd's mod of Exclusion 4) | 46.1 | 39.1 |  |  |
| GUUAGACAUGAGGAUCACCCAUGUGAGGAUAUGAUGUGAAUAAAUAAUUAAUUAAGUAUCAGAAGGCACAUAUG [Mat - Mod of Hyphema D32] (puzzle: Exclusion 1) |  |  | 119 |  |
| AUUAGUAAUAAGGAUAUCACUAGCCUCGGCUAGUGAGAAGGUAUUACAUGAGGAUCACCCAUGUGAUUAAUUAA [E6/5-A2] (Eterna round: R97, puzzle: Exclusion 6) | 463 | 79.7 |  |  |
| AACUGUCUAGAGGAUAUGCUGGAUUAAUAUCUGGCAGAAGGUUGGACAUGAGGAUCACCCAUGUAAAUACUACC [Omei Ex6 A7] (Eterna round: R97, puzzle: Exclusion 6) | 33.1 | 20.3 |  |  |
| UGUGCUCUAGGAUAUGCGUAAGCUGAUACGUCAGCAGGUCUACAUGAGGAUCACCCAUGUAGAAGGAGAGUACU [jl-ex2-4.00] (Eterna round: R97, puzzle: Exclusion 2) | 18.6 | 20.8 |  |  |
| AAGUCGAGCGUGAGGAUAUCGUCCGAACGACCGAACGAGAAGGCACAUGAGGAUCACCCAUGUGAUUCAGCUCA [Brourd's EX4 #48] (Eterna round: R97, puzzle: Brourd's mod of Exclusion 4) | 16.8 | 14.2 |  |  |
| CCGGCUGCUGUGAGGAUAUGCCCGCGCGCCCGCGGGCAGAAGGCACAUGAGGAUCACCCAUGUCCUGCGGUCCC [salish99_bmx4_r4_120] (Eterna round: R97, puzzle: Brourd's mod of Exclusion 4) | 122 | 24.1 |  |  |
| AGCUGUGGCCGAGGAUAUCUAAUAACUCAAACCGAAAUAUAAUCGGACAUGAGGAUCACCCAUGUAGAGAAGGCGGUCUCAGCA [Eli eng2 - 063] (Eterna round: R96, puzzle: Exclusion NG 2) |  |  |  | apparent KD of MS2 coat protein [1]: 69.8 nM |
| ACUUGCUAUUUGCUCGUCUUAUUUUUGUUUAUUUACUAUACAUGAGGAUCACCCAUGUUAUAUUUAAGGGUGUGAUA [JR_SV3TOV2_Sub074] (puzzle: Sensor v3, turn-off variant 2) |  |  | 334 | apparent KD of MS2 coat protein [3]: 270 nM; apparent KD of MS2 coat protein [4]: 259 nM |
| ACAUGAGGAUCACCCAUGUCCGGCUGGUCCGUCUCGGCUGUCGAGGAUAUGGCUCGGUGUCCGCGCUAGAAGGUGGGAGCCGGC [Aenatbe mod 73] (Eterna round: R96, puzzle: Exclusion NG 3) | 332 | 266 |  | apparent KD of MS2 coat protein [1]: 127 nM |
| GGUCCACGAGGAUAUCGAUUUUAGUACAUGAGGAUCACCCAUGUUGUCCAGGUUUCGAUUCGAGAAGGCGUGGGCC [LRO-Ex5-03] (puzzle: Exclusion 5) |  |  | 20.3 |  |
| CUUUCGUGAGGAUAUCAGUAGUAAAAAAAUAAAAUUACUACUGAGAAGGCACAUGAGGAUCACCCAUGUUCCUC [salish99_ex3_r3_097] (puzzle: Exclusion 4) |  |  | 25.7 |  |
| UAUUAGUGAGGAUAUGAGUCGUAGAACAAUAGUACUACGUCUCAGAAGGUACAUGAGGAUCACCCAUGUUUCUC [Fiskers Ex 4 Super Stable 44 mod 33] (puzzle: Exclusion 4) |  |  | 18.8 |  |
| UAUCCACAUGAGGAUCACCCAUGUGAGGAUAUGAUACUAUGUACUUCGGUACAUAGUAUCAGAAGGCACAGGUC [Ex1-3: 57] (puzzle: Exclusion 1) |  |  | 20.3 |  |

| Sequence | apparent KD of MS2 coat protein (input ligand: FMN 200 uM) [nM] | apparent KD of MS2 coat protein (input ligand: none) [nM] | apparent KD of MS2 coat protein [2] [nM] | also measured |
| --- | --- | --- | --- | --- |
| GCGCCAUCGUGAGAUGGCGUAAUUACAUGAGGAUCACCCAUGUAGGAUAUCGAUUGCUUUGCAGUCGAGAAGGGCAUGUAUAAU [JL ENG3 3.94] (Eterna round: R96, puzzle: Exclusion NG 3) | 45 | 37.9 |  | apparent KD of MS2 coat protein [1]: 26.5 nM |
| AGUAGUAGUAUCCGAUCCUACAUGAGGAUCACCCAUGUAGCUAGACGUGCACGCGAUGCUCGUCGGACUACCAGAUG [salish99_TOv1_r3_043] (puzzle: Sensor v3, turn-off variant 1) |  |  | 46.9 | apparent KD of MS2 coat protein [3]: 48 nM; apparent KD of MS2 coat protein [4]: 63.4 nM |
| CGGCGGGCAGGAUAUGGUAAUAAUUACAUGAGGAUCACCCAUGUGGAUAUAUGGGAAUAACCAGAAGGGCUUGUUG [-20.1, -20 kcal, A 30%] (Eterna round: R97, puzzle: Exclusion 5) | 63.2 | 74.4 |  |  |
| GUCUUGUCAGGAUAUCUUACAUAACCAUCGUAGUUACAAUUGGAGAAGGGACAUGAGGAUCACCCAUGUUUGCG [tap-tap-tappy32] (Eterna round: R97, puzzle: Exclusion 4) | 34.8 | 26.6 |  |  |
| GCGCAGGUAGGAUAUCGAGCUAAGAACAUGAGGAUCACCCAUGUGUUCGGUAGCCAACUUCGAGAAGGACCAAAUA [Ceati] (puzzle: Exclusion 5) |  |  | 11.4 | apparent KD of MS2 coat protein [3]: 23.9 nM; apparent KD of MS2 coat protein [4]: 14.9 nM |
| GGGUUACAUGAGGAUCACCCAUGUGAGGAUAUGAUACUAUGUACUUCGGUACAUAGUAUCAGAAGGCACAUCCC [Ex1-3: 20] (puzzle: Exclusion 1) |  |  | 31.4 |  |
| CCGGAAAGGAAGGAUAUGCUAGACGAUAGUCUAGCAGAAGGUCCUACAUGAGGAUCACCCAUGUGUCCUCCCGG [Mat - Exclusion 6 - Eli Mod - D43] (Eterna round: R97, puzzle: Exclusion 6) | 1260 | 182 |  |  |
| UUUGAGUUAGGAUAUGCCAAGUUGCACAUGAGGAUCACCCAUGUGAGGUGCCUUACUUAAGCAGAAGGAACAAUAA [EX5 C.13] (Eterna round: R97, puzzle: Exclusion 5) | 22.1 | 19.8 |  |  |
| GUGAAGGUAGGAUAUACGAUAAUAUAGGGUAGAUAUAUAACACAUGAGGAUCACCCAUGUAGAAGGACCAAGUG [Mat - Exclusion 2 - Mod of my Tesla design - D61] (puzzle: Exclusion 2) |  |  | 46 |  |
| UUUUGGCAAGCGAGAUCCGACAUGAGGAUCACCCAUGUGCGGGCCCGAAAAGGGCCCGCGGUUGCUCGUCUUGUGUG [free energy optimized] (Eterna round: R97, puzzle: Sensor, turn-off variant 1) | 15.7 | 16.9 |  |  |
| ACUGGUCGAGGAUAUACAUGAGGAUCACCCAUGUUGAUCAACUGCCGAUAGGCAGAAUGUAGAAGGCGACCAGU [E3/7-A2] (Eterna round: R97, puzzle: Exclusion 3) | 119 | 942 |  |  |
| CCCUCAAGCGAGGAUAUAAAUGCGCAUUCGCGGUUAGAAGGCGCUACAUGAGGAUCACCCAUGUAAUUGAAUGG [jl-ex6-4.52 ViennaUCT mod] (Eterna round: R97, puzzle: Exclusion 6) | 117 | 58.7 |  |  |
| CCGCUGUGAGGAUAUUAGUAGUAGUCAGAAAAGACUAUUACUGAGAAGGCACAUGAGGAUCACCCAUGUCGCGG [Mat - Exclusion 4 - Eli Mod - D49] (Eterna round: R97, puzzle: Exclusion 4) | 39.7 | 28.8 |  |  |
| AGUAGUAGUAUCCGAUCCUACAUGAGGAUCACCCAUGUUGCUAGACGUGCACGCGAUGCUCGUCAGACUACCAGAUG [salish99_TOv1_r3_050] (puzzle: Sensor v3, turn-off variant 1) |  |  | 150 | apparent KD of MS2 coat protein [3]: 326 nM; apparent KD of MS2 coat protein [4]: 157 nM |
| AUAACCGAAGGAUAUAGUCGUGAGGACAUGAGGAUCACCCAUGUGUUUCAGAUAGUCCCACUAGAAGGUCGGCGUC [Eternabot (L2) Solution 29] (Eterna round: R97, puzzle: Exclusion 5) | 110 | 67.2 |  |  |
| UAUUUAUAUGAAGGAUAUACUUAACAUGAGGAUCACCCAUGUGGUGUUGUGAGUGAGUGAGUUUAGUAGAAGGUCAAGUAUUUU [JMF's solution 53] (Eterna round: R96, puzzle: Exclusion NG 2) | 844 | 456 |  | apparent KD of MS2 coat protein [1]: 378 nM |
| UGUAAGCUAGGAUAUGCUUUGGGAAAGCAUUCCUUCGAUAAACUUGAGGAUCACCCAAGUAGAAGGAGCUUACG [salish99_ex2_r4_007] (Eterna round: R97, puzzle: Exclusion 2) | 14.1 | 12.8 |  |  |
| GCACUGCGAGGAUAUACAUGAGGAUCACCCAUGUGUCGGCAGCCAUGUUAUUUCUAAUGUAGAAGGCGCGUAAA [JR_Ex3_Sub001] (Eterna round: R97, puzzle: Exclusion 3) | 125 | 33 |  |  |

— the supplement of paper PMC9170038
